B1: secreted form of hCE1mut6: mutant human CE lacking the six C-terminal amino acid residues (Thr-Glu-His-Ile-Glu-Leu); expressed from pIRESmut6C (protein)
chain: MWLRAFILATLSASAAWGHPSSPPVVDTVHGKVLGKFVSLEGFAQPVAIFLGIPFAKPPLGPLRFTPPQPAEPWSFVKNATSYPPMCTQDPKAGQLLSELFTNRKENIPLKLSEDCLYLNIYTPADLTKKNRLPVMVWIHGGGLMVGAASTYDGLALAAHENVVVVTIQYRLGIWGFFSTGDEHSRGNWGHLDQVAALRWVQDNIASFGGNPGSVTIFGESAGGESVSVLVLSPLAKNLFHRAISESGVALTSVLVKKGDVKPLAEQIAITAGCKTTTSAVMVHCLRQKTEEELLETTLKMKFLSLDLQGDPRESQPLLGTVIDGMLLLKTPEELQAERNFHTVPYMVGINKQEFGWIIPMQMLGYPLSEGQLDQKTAMSLLWKSYPLVCIAKELIPEATEKYLGGTDDTVKKKDLFLDLIADVMFGVPSVIVARNHRDAGAPTYMYEYRYRPSFSSDMRPKTVIGDHGDELFSVFGAPFLKEGASEEEIRLSKMVMKFWANFARNGNPNGEGLPHWPEYNQKEGYLQIGANTQAAQKLKDKEVAFWTNLFAKKAVEKPPQ
modifications: Synthethic mutant human carboxylesterase
notes: mutant human CE lacking the six C-terminal amino acid residues (Thr-Glu-His-Ile-Glu-Leu); expressed from pIRESmut6C
B2: hCE1 variant hCE1m6 (hCE1mut6; L362M, M363L, K459R, F448Y, Q449R, L358I, S364G, Q362 insertion), SEQ ID NO:3 (Homo sapiens; … (protein)
chain: GHPSSPPVVDTVHGKVLGKFVSLEGFAQPVAIFLGIPFAKPPLGPLRFTPPQPAEPWSFVKNATSYPPMCTQDPKAGQLLSELFTNRKENIPLKLSEDCLYLNIYTPADLTKKNRLPVMVWIHGGGLMVGAASTYDGLALAAHENVVVVTIQYRLGIWGFFSTGDEHSRGNWGHLDQVAALRWVQDNIASFGGNPGSVTIFGESAGGESVSVLVLSPLAKNLFHRAISESGVALTSVLVKKGDVKPLAEQIAITAGCKTTTSAVMVHCLRQKTEEELLETTLKMKFLSLDLQGDPRESQPLLGTVIDGMLLLKTPEELQAERNFHTVPYMVGINKQEFGWIIPMQMLGYPLSEGQLDQKTAMSLLWKSYPLVCIAKELIPEATEKYLGGTDDTVKKKDLFLDLIADVMFGVPSVIVARNHRDAGAPTYMYEYRYRPSFSSDMRPKTVIGDHGDELFSVFGAPFLKEGASEEEIRLSKMVMKFWANFARNGNPNGEGLPHWPEYNQKEGYLQIGANTQAAQKLKDKEVAFWTNLFAKKAVEKPPQTEHIEL
B3: hCE1: wild-type human liver carboxylesterase, Genbank M73499 (protein, listed as Homo sapiens)
chain: MWLRAFILATLSASAAWGHPSSPPVVDTVHGKVLGKFVSLEGFAQPVAIFLGIPFAKPPLGPLRFTPPQPAEPWSFVKNATSYPPMCTQDPKAGQLLSELFTNRKENIPLKLSEDCLYLNIYTPADLTKKNRLPVMVWIHGGGLMVGAASTYDGLALAAHENVVVVTIQYRLGIWGFFSTGDEHSRGNWGHLDQVAALRWVQDNIASFGGNPGSVTIFGESAGGESVSVLVLSPLAKNLFHRAISESGVALTSVLVKKGDVKPLAEQIAITAGCKTTTSAVMVHCLRQKTEEELLETTLKMKFLSLDLQGDPRESQPLLGTVIDGMLLLKTPEELQAERNFHTVPYMVGINKQEFGWLIPMLMSYPLSEGQLDQKTAMSLLWKSYPLVCIAKELIPEATEKYLGGTDDTVKKKDLFLDLIADVMFGVPSVIVARNHRDAGAPTYMYEFQYRPSFSSDMKPKTVIGDHGDELFSVFGAPFLKEGASEEEIRLSKMVMKFWANFARNGNPNGEGLPHWPEYNQKEGYLQIGANTQAAQKLKDKEVAFWTNLFAKKAVEKPPQTEHIEL
B4: rCE: wild-type rabbit liver carboxylesterase, Genbank AF036930 (protein, listed as Oryctolagus cuniculus)
chain: GSLRFAPPQPAESWSHVKNTTSYPPMCSQDAVSGHMLSELFTNRKENIPLKFSEDCLYLNIYTPADLTKRGRLPVMVWIHGGGLMVGGASTYDGLALSAHENVVVVTIQYRLGIWGFFSTGDEHSRGNWGHLDQVAALRWVQDNIANFGGDPGSVTIFGESAGGQSVSILLLSPLTKNLFHRAISESGVALLSSLFRKNTKSLAEKIAIEAGCKTTTSAVMVHCLRQKTEEELMEVTLKMKFMALDLVGDPKENTAFLTTVIDGVLLPKAPAEILAEKKYNMLPYMVGINQQEFGWIIPMQMLGYPLSEGKLDQKTATELLWKSYPIVNVSKELTPVATEKYLGGTDDPVKKKDLFLDMLADLLFGVPSVNVARHHRDAGAPTYMYEYRYRPSFSSDMRPKTVIGDHGDEIFSVLGAPFLKEGATEEEIKLSKMVMKYWANFARNGNPNGEGLPQWPAYDYKEGYLQIGATTQAAQKLKDKEVAFWTELWAKEAARPRETEHIEL

Legend:
U373MG cells = experiment: Growth inhibition by CPT-11 of U373MG cells; format: cell-based, human; details: for sensitization of cells to CPT-11: U373MG cells expressing the labelled enzyme
Experimental: Experiments were also performed in human brain tumor cells (U373MG) where the growth of the cells was examined in cells that expressed the mutant form of the human CE enzyme.
Experiments were also performed to determine whether cells expressing a secreted form of hCElm6 (SEQ ID NO:16) produced media that had CE activity.
(§1) Transfection of Cell Lines. Transient transfection of Cos7 cells was achieved by electroporation (Potter, et al. 1998. Cancer Res. 52:2646-2651). For the generation of stable cell lines, cDNAs were ligated into pIRESneo and U373MG cells were electroporated under similar conditions. Transfectants were selected in media containing 400 μg/ml of G418. Since the CE cDNA was linked via an internal ribosome entry sequence (IRES) to the neomycin gene, selection of individual G418-resistant clones was not necessary.
(§2) Construction of Adenovirus. Replication-deficient adenovirus expressing hCElm6 or rCE were constructed using standard protocols (Wierdl, et al. 2001. Cancer Res. 61:5078-5082). Multiplicity of infection (moi) was defined as the number of plaques produced in 1×10^6 293 cells in a total volume of 1 ml of media after incubation with virus for 1 hour.
Growth Inhibition Assays.

[1] = substrate: CCc1c2c(nc3ccc(OC(=O)N4CCC(N5CCCCC5)CC4)cc13)-c1cc3c(c(=O)n1C2)COC(=O)[C@]3(O)CC; experiment: purified protein, by the assay type; details: other: CPT-11 hydrolysis, hCE1m6
[2] = Carboxylesterase (CE) activity of whole cell sonicates of transiently transfected Cos7 cells, o-NPA substrate; format: biochemical
Experimental: (§3) Whole cell sonicates were monitored for CE activity. Results were expressed as nmoles o-nitrophenol produced per minute per milligram of total protein. To correct for differences in CE expression within transfected cells, the enzyme activity values were corrected for the level of immunoreactive CE protein as determined using a western blot analysis.
(§4) Carboxylesterase Assays. CE activity was determined using a spectrophotometric assay with 3 mM o-nitrophenyl acetate (o-NPA) as a substrate (Potter, et al. 1998. Cancer Res. 52:2646-2651; Wierdl, et al. 2001. Cancer Res. 61:5078-5082; Beaufay, et al. 1974. J. Cell Biol. 61:188-200). Data were expressed as nmoles o-nitrophenol produced per minute per milligram of protein. To correct for differences in CE expression within transfected cells, the enzyme activity values were corrected for the level of immuno-reactive CE protein as determined from western analyses.
as §1, with “necessary. Routinely, whole cell sonicates obtained from these pooled populations of cells contained 200-500 nmoles/min/mg of CE activity.” for “necessary.”
(§5) Western Analysis. Cell extracts were separated in 4-20% pre-cast SDS-PAGE gels (Invitrogen, Carlsbad, Calif.) and following transfer to Immobilon-P membranes by electroblotting (Matsuidaira. 1990. Methods Enzymol. 182:602-613), western analysis was performed using known methods (Morton & Potter. 1998. J. Pharmacol. Expt. Therap. 286:1066-1073). CEs were identified using an anti-peptide antibody raised against the C-terminal amino acids […] In all experiments, membranes were re-probed with an anti-TFIID antibody to confirm equal loading, and to correct for any differences in total protein. The molecular weight of immuno-reactive bands was determined using pre-stained molecular weight protein markers (Pierce, Rockford, Ill.). Densitometric quantitation of CE expression was performed using One-Dscan gel analysis software (Scanalytics Inc, Fairfax, Va.).

[3] = CE activity (o-NPA) in human tumor cell lines expressing CE after plasmid transfection or adenoviral transduction; format: biochemical; details: for CE Activity: ± SD, U373MG cells stably transfected (pIRESneo) expressing the enzyme
Text: […], it was observed that expression of hiCE following plasmid-mediated transfection was frequently lower than that seen with rCE or […]. […] Since expression of the transgene from this expression vector is co-regulated with the neo gene via an IRES sequence, selection with similar concentrations of G418 should result in cell lines that express approximately equal levels of recombinant protein. However, the average levels of CE activity in U373hiCE, U373hCE1 and U373hCE1m6 cells were 287.6±76.6, 1077.1±77.5, and 466.5±52.6 nmoles/min/mg, respectively.
as §4
as §1, with “necessary. Routinely, whole cell sonicates obtained from these pooled populations of cells contained 200-500 nmoles/min/mg of CE activity.” for “necessary.”
as §2

[4] = Kinetic parameters for CPT-11 hydrolysis by purified recombinant CEs; format: biochemical; details: hCE1 and rCE values rest on cited data
Experimental: To directly compare the abilities of the mammalian CEs to hydrolyze CPT-11, a series of biochemical studies were carried out using the purified proteins in vitro. These experiments determined the Km, Vmax, kcat and kcat/Km values for the different enzymes.
Protein Purification. […] For hiCE, an alternative purification procedure was developed using DEAE chromatography and elution with a pH/salt gradient.
Determination of Kinetic Parameters for Substrate Hydrolysis.

[5] = CPT-11 conversion assay (CPT-11 to SN-38) with extracts of transfected COS-7 cells, HPLC; format: biochemical; details: Cos7 cell extracts
Text: as §3
This was necessary since it was unclear whether the mutations would influence the ability of the CEs to metabolize o-NPA, which is used as a measure of enzyme activity.
CPT-11 Conversion Assays. […] An equal volume of acidified methanol was added to terminate the reactions and particulate matter was removed by centrifugation at 100,000 g for 5 minutes at 4° C. Concentrations of both drugs in the supernatant were then determined by HPLC (Guichard, et al. 1998. Clin. Cancer Res. 4:3089-3094; Morton, et al. 2000. Cancer Res. 60:4206-4210).
as §5

[6] = Table 3, Cos7 whole cell sonicates, 3 mM o-NPA, nmoles o-nitrophenol per min per mg
[7] = Table 4, rCE mutant panel, Cos7 extracts, o-NPA

Row | Molecule | fold reduction in the IC50 value for CPT-11 (U373MG cells; U373MG cells expressing intracellular (u373IRESmut6) or secreted (U373IRESmut6C) form, FIG. 4) | Km [1] | CE Activity [2, 6] | CE Activity [2, 7] | average levels of CE activity ([3]; U373MG cells stably transfected with pIRESneo constructs, monitored over an extended time period) | CE Activity [3] | sensitization of cells to CPT-11 (U373MG cells) | Ratio kcat/Km as compared to hCE1 [4] | CPT-11 Converting Activity ([5]; Table 4, rCE mutant panel) | CPT-11 Converting Activity ([5]; Table 3, 5 μM CPT-11, 1 hour, corrected for CE protein by western)
1 | B1 | ~130 fold | – | – | – | – | – | – | – | – | –
2 | B2 | – | 6.25 ± 0.59 µM | – | – | – | – | – | – | – | –
3 | B3 | – | – | 119.0 ± 5.0 nmol/min/mg | 329.2 ± 11.6 nmol/min/mg CE | 1077.1 ± 77.5 nmol/min/mg | 1016.4 ± 45.5 nmol/min/mg | not sensitized | 1 | Not Detected | –
4 | B4 | – | – | 332.7 ± 17.2 nmol/min/mg | 243.1 ± 17.0 nmol/min/mg CE | – | 601.0 ± 20.5 nmol/min/mg | sensitized | 650 | 75.6 pmol/hr/mg CE | 41 pmol/hr/mg CE
